Measurements as given in article PMC9482650, “Quantitative fragmentomics allow affinity mapping of interactomes” (Nature Communications, 2022).

T1: DFNB31_3, Q9P202
T1 sequence (Q9P202 811-907, limits assumed, looked up): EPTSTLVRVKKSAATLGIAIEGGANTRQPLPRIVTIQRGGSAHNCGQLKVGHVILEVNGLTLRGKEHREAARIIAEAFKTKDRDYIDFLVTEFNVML


biological target: T1, DFNB31_3, Q9P202; assay: holdup assay; set-up: key: below the threshold = too weak to quantify, mostly under pKd 3.1 to 4; conditions: plain residues with an end cap or a label only (N-terminal biotin on a linker: ado-ado)

pKd | Binder
below the threshold | ATKDKKITTV [EXOC4, Q96A65]
below the threshold | SRPHTNETSL [MCC, P23508]
below the threshold | GSQSQVETEA [FKBP4, Q02790]
3.98 | VKQYADVEGF [HNRNPK, P61978;P61978-2]
below the threshold | PSVYSRSQYV [CLDN8, P56748]
3.81 | GDSSRKEYFI [GYPC, P04921]
below the threshold | FHSIKQSTAV [CRHR1, P34998]
